One substance from US20220112250A1 can be followed below.

The assay concerns the target Rat CaV2.2 channel (α1B splice variant e37a, α2δ1 and β3) expressed in HEK293T cells (rat) (UniProt Q02294). In words: cell-based or functional assay.
Chain of UniProt Q02294 (Q02294 other isoform, or with tags, fused parts or gaps mutant, chain 1 of 3): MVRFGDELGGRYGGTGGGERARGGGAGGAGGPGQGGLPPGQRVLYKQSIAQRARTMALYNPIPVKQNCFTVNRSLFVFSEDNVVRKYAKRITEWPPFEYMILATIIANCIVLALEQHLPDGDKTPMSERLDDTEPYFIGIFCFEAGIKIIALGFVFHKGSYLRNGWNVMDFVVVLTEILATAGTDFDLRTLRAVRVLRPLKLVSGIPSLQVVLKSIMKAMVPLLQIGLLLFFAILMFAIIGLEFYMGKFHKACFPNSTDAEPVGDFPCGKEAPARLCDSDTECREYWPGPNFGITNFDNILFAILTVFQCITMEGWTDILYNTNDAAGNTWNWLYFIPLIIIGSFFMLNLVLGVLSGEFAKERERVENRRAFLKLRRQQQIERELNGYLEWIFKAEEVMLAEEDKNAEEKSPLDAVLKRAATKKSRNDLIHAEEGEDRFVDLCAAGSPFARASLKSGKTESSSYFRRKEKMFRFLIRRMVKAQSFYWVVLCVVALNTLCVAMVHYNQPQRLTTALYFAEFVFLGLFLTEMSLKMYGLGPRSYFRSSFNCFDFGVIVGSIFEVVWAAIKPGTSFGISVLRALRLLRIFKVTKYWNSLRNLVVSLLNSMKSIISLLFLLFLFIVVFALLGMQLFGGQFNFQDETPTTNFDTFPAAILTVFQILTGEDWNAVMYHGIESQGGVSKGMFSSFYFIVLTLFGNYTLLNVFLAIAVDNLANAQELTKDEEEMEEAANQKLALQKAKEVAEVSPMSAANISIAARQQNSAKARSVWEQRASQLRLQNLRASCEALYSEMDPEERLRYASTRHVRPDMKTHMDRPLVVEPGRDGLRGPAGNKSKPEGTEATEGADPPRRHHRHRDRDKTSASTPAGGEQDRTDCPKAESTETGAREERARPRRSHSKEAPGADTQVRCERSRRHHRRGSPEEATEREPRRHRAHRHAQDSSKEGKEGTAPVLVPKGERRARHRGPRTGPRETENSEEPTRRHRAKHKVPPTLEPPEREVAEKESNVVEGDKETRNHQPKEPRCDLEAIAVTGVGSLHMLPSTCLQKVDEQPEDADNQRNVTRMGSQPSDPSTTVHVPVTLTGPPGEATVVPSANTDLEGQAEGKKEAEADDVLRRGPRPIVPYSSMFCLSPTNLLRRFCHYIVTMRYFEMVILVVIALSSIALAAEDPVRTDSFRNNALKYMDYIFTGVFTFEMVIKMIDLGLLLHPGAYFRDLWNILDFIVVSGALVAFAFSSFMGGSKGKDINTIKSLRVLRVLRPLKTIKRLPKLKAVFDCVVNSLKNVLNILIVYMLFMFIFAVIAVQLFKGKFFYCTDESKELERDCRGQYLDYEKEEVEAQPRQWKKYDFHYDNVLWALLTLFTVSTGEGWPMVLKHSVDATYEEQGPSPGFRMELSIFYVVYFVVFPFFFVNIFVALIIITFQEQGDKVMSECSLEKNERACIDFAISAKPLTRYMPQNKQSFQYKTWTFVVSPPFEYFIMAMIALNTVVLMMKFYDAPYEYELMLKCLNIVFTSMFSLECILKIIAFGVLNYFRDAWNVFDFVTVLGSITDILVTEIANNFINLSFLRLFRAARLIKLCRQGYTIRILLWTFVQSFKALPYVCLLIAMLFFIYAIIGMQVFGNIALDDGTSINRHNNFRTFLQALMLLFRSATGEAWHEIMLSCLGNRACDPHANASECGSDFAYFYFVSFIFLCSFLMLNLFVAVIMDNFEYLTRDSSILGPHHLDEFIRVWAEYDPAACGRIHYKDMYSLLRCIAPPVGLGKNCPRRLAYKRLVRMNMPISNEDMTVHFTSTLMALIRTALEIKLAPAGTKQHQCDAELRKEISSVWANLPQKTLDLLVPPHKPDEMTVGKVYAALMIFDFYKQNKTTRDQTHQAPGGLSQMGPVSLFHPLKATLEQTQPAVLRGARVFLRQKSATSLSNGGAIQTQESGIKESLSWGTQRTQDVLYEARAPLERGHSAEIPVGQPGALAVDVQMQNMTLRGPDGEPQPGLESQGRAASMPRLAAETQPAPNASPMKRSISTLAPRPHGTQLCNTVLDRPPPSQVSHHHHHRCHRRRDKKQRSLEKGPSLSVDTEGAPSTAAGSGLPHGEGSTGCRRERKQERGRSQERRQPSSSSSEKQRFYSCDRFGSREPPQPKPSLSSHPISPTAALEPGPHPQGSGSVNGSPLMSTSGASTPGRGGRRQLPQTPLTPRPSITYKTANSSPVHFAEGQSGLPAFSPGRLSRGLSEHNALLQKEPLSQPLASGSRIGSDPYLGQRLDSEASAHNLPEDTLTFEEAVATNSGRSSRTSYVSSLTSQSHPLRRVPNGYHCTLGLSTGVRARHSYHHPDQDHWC
Chain of UniProt Q02294 (P54290 25-1091, stated change not applied, chain 2 of 3, further chain): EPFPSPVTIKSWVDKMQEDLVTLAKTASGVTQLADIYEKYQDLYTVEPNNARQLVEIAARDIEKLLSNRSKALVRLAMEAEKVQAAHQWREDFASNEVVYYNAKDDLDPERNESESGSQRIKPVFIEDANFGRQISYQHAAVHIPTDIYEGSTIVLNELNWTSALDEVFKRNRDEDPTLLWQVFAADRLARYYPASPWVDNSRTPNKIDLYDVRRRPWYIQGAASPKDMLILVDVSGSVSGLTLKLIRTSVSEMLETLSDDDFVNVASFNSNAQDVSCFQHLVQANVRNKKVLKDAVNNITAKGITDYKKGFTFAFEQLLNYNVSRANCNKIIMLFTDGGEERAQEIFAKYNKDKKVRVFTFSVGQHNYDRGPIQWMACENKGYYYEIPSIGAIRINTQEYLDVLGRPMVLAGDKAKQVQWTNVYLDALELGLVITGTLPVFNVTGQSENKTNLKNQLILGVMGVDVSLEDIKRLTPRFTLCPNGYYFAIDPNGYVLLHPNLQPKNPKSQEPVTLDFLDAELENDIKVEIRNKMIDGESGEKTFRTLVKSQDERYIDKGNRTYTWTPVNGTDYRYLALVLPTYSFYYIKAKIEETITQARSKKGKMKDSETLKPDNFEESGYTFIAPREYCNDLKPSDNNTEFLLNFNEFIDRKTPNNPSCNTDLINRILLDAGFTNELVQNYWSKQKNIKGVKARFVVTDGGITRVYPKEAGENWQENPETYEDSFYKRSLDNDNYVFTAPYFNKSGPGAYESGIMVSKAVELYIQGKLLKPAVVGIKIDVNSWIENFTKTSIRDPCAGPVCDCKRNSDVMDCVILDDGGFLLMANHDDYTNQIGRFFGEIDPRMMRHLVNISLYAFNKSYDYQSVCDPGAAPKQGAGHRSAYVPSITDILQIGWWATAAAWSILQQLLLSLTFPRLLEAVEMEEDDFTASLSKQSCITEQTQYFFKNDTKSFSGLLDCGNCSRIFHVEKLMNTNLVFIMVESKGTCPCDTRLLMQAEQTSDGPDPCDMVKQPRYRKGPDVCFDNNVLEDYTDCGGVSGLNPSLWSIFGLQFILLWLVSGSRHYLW
Chain of UniProt Q02294 (P54287 whole entry, stated change not applied, chain 3 of 3, further chain, canonical isoform): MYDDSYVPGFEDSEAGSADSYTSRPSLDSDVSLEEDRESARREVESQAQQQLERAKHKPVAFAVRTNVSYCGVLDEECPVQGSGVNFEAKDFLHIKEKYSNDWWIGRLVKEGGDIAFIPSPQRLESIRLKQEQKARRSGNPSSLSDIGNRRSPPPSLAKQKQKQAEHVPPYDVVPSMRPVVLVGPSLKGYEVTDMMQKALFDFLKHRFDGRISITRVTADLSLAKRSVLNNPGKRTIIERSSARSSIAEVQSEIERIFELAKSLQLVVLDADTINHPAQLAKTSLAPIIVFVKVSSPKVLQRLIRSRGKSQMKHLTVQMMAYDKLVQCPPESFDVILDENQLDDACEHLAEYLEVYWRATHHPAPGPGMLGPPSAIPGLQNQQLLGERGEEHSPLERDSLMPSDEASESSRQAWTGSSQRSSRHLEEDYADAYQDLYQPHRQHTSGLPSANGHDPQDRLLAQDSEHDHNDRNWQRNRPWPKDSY

For MVIIA (ziconotide) (peptide), the half inhibitory concentration of CaV2.2 channel current amounted to 0.0436 µM.
